Results from the supplement of paper PMC9112550, “Optimization of the antimicrobial peptide Bac7 by deep mutational scanning” (BMC Biology, 2022).

Test system: Escherichia coli TOP10
Experiment: shrunken log2 fold change of peptide-encoding DNA abundance (4.5 h post-induction vs induction); higher = less antimicrobial activity (less host growth inhibition)
Settings: time post-induction: 4.5 h; library: site-saturation at positions 5, 18, 19, 20
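Further: peptides expressed intracellularly from a pBAD plasmid library in pooled LB shake-flask culture, induced with 0.3% L-arabinose, DNA abundance read by NGS, three biological replicates, DESeq2 with apeglm shrinkage.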

Sequence	shrunken log2 fold change
RRIRRRPPRLPRPRPRPMDTPRP	0.229
RRIRPRPPRLPRPRPRPLNCPRP	-0.227
RRIRTRPPRLPRPRPRPDVVPRP	-0.106
RRIRNRPPRLPRPRPRPYNDPRP	-0.581
RRIRGRPPRLPRPRPRPRKEPRP	0.363
RRIRSRPPRLPRPRPRPHGHPRP	-0.167
RRIRCRPPRLPRPRPRPCDCPRP	-0.139
RRIRFRPPRLPRPRPRPCQIPRP	-0.0143
RRIRRRPPRLPRPRPRPLGGPRP	0.376
RRIRRRPPRLPRPRPRPAVRPRP	0.0847
RRIRRRPPRLPRPRPRPQVYPRP	-0.0473
RRIRPRPPRLPRPRPRPYHMPRP	-0.316
RRIRMRPPRLPRPRPRPIHSPRP	-0.01
RRIRGRPPRLPRPRPRPDYHPRP	-0.139
RRIRVRPPRLPRPRPRPLEFPRP	-0.114
RRIRTRPPRLPRPRPRPPVWPRP	0.0152
RRIRVRPPRLPRPRPRPHEFPRP	-0.0515
RRIRGRPPRLPRPRPRPEHKPRP	0.464
RRIRGRPPRLPRPRPRPDVQPRP	1.69
RRIRQRPPRLPRPRPRPDASPRP	0.0949
RRIRTRPPRLPRPRPRPPAFPRP	-0.216
RRIRSRPPRLPRPRPRPIKCPRP	-0.0332
RRIRVRPPRLPRPRPRPSPPPRP	-0.0761
RRIRMRPPRLPRPRPRPFCFPRP	0.222
RRIRNRPPRLPRPRPRPKWAPRP	-0.0431

Sequence	shrunken log2 fold change
RRIRERPPRLPRPRPRPMCNPRP	-0.0237
RRIRIRPPRLPRPRPRPIFHPRP	-0.411
RRIRHRPPRLPRPRPRPNGSPRP	-0.0827
RRIRNRPPRLPRPRPRPKMKPRP	-0.286
RRIRCRPPRLPRPRPRPYKFPRP	-0.279
RRIRHRPPRLPRPRPRPVCRPRP	-0.3
RRIRDRPPRLPRPRPRPFLLPRP	0.0901
RRIRNRPPRLPRPRPRPPTGPRP	0.154
RRIRQRPPRLPRPRPRPMNSPRP	-0.468
RRIRIRPPRLPRPRPRPQEIPRP	-0.581
RRIRMRPPRLPRPRPRPAISPRP	0.0806
RRIRIRPPRLPRPRPRPWNGPRP	-0.172
RRIRVRPPRLPRPRPRPYYGPRP	-0.203
RRIRRRPPRLPRPRPRPVAFPRP	0.383
RRIRCRPPRLPRPRPRPCDIPRP	-0.0278
RRIRMRPPRLPRPRPRPLPSPRP	0.942
RRIRWRPPRLPRPRPRPCWFPRP	0.0945
RRIRWRPPRLPRPRPRPSQLPRP	-0.375
RRIRLRPPRLPRPRPRPTMEPRP	0.274
RRIRHRPPRLPRPRPRPITTPRP	-0.0193
RRIRSRPPRLPRPRPRPNDDPRP	0.0402
RRIRYRPPRLPRPRPRPVHEPRP	0.0155
RRIRMRPPRLPRPRPRPDKMPRP	0.323
RRIRGRPPRLPRPRPRPWWGPRP	-0.0457
RRIRTRPPRLPRPRPRPQAFPRP	0.0884

Sequence	shrunken log2 fold change
RRIRDRPPRLPRPRPRPVWWPRP	-0.00968
RRIRVRPPRLPRPRPRPPAHPRP	0.231
RRIRDRPPRLPRPRPRPLWYPRP	-0.421
RRIRQRPPRLPRPRPRPAPEPRP	0.228
RRIRVRPPRLPRPRPRPGHDPRP	-0.116
RRIRRRPPRLPRPRPRPNECPRP	0.0616
RRIRCRPPRLPRPRPRPIYNPRP	-0.761
RRIRTRPPRLPRPRPRPCFHPRP	-0.638
RRIRKRPPRLPRPRPRPWCVPRP	-0.00029
RRIRNRPPRLPRPRPRPWYLPRP	-0.0197
RRIRKRPPRLPRPRPRPKRSPRP	0.667
RRIRFRPPRLPRPRPRPIHYPRP	-1.14
RRIRPRPPRLPRPRPRPTMPPRP	-0.144
RRIRFRPPRLPRPRPRPKPKPRP	0.848
RRIRFRPPRLPRPRPRPRGFPRP	0.27
RRIRKRPPRLPRPRPRPTHYPRP	-0.134
RRIRFRPPRLPRPRPRPPWSPRP	0.204
RRIRDRPPRLPRPRPRPWRTPRP	-0.0162
RRIRTRPPRLPRPRPRPLAHPRP	-0.256
RRIRNRPPRLPRPRPRPNHAPRP	-0.0192
RRIRYRPPRLPRPRPRPACPPRP	-0.0352
RRIRPRPPRLPRPRPRPFNLPRP	-0.771
RRIRRRPPRLPRPRPRPEFNPRP	0.25
RRIRWRPPRLPRPRPRPMACPRP	-0.0978
RRIRWRPPRLPRPRPRPVTEPRP	0.361

Sequence	shrunken log2 fold change
RRIRERPPRLPRPRPRPDPPPRP	0.32
RRIRHRPPRLPRPRPRPIWLPRP	-0.00879
RRIRLRPPRLPRPRPRPIFSPRP	-0.182
RRIRRRPPRLPRPRPRPAWVPRP	1.75
RRIRDRPPRLPRPRPRPNWLPRP	0.0018
RRIRPRPPRLPRPRPRPMHPPRP	0.324
RRIRFRPPRLPRPRPRPDGNPRP	-0.174
RRIRRRPPRLPRPRPRPRSGPRP	0.751
RRIRFRPPRLPRPRPRPGRSPRP	0.183
RRIRKRPPRLPRPRPRPVLNPRP	0.0304
RRIRIRPPRLPRPRPRPMRIPRP	-0.0754
RRIRLRPPRLPRPRPRPQMHPRP	-0.295
RRIRCRPPRLPRPRPRPPATPRP	0.887
RRIRSRPPRLPRPRPRPHEGPRP	0.0242
RRIRSRPPRLPRPRPRPNFSPRP	-0.112
RRIRSRPPRLPRPRPRPINTPRP	-0.648
RRIRFRPPRLPRPRPRPCVTPRP	-0.492
RRIRLRPPRLPRPRPRPNKEPRP	0.0626
RRIRMRPPRLPRPRPRPAEPPRP	0.449
RRIRARPPRLPRPRPRPQCEPRP	0.724
RRIRERPPRLPRPRPRPHPAPRP	0.039
RRIRSRPPRLPRPRPRPCISPRP	-0.0391
RRIRYRPPRLPRPRPRPNQGPRP	-0.00893
RRIRVRPPRLPRPRPRPHKNPRP	-0.301
RRIRMRPPRLPRPRPRPCAMPRP	0.424

Sequence	shrunken log2 fold change
RRIRTRPPRLPRPRPRPCHFPRP	-0.387
RRIRVRPPRLPRPRPRPKKFPRP	-0.0429
RRIRTRPPRLPRPRPRPYHPPRP	-0.304
RRIRMRPPRLPRPRPRPDYDPRP	0.635
RRIRNRPPRLPRPRPRPILMPRP	-0.0495
RRIRCRPPRLPRPRPRPMKYPRP	-0.82
RRIRWRPPRLPRPRPRPLIPPRP	-0.327
RRIRPRPPRLPRPRPRPKKFPRP	0.0281
RRIRFRPPRLPRPRPRPDFRPRP	0.00564
RRIRARPPRLPRPRPRPGVAPRP	1.05
RRIRRRPPRLPRPRPRPWERPRP	-0.0262
RRIRSRPPRLPRPRPRPQSAPRP	0.108
RRIRHRPPRLPRPRPRPYWEPRP	-0.238
RRIRHRPPRLPRPRPRPARMPRP	-0.0768
RRIRARPPRLPRPRPRPHQEPRP	0.568
RRIRMRPPRLPRPRPRPCPDPRP	-0.0886
RRIRQRPPRLPRPRPRPKHQPRP	-0.386
RRIRHRPPRLPRPRPRPHMPPRP	-0.358
RRIRHRPPRLPRPRPRPMQKPRP	-0.0124
RRIRCRPPRLPRPRPRPDHKPRP	-1.04
RRIRQRPPRLPRPRPRPFMWPRP	-0.245
RRIRKRPPRLPRPRPRPWGIPRP	-0.168
RRIRVRPPRLPRPRPRPAVDPRP	0.192
RRIRCRPPRLPRPRPRPWRTPRP	-0.166
RRIRGRPPRLPRPRPRPPLPPRP	1.01
